“And” between values parts separate entries of the source, which are not always exact repeats. Equal values may be shown once. Values belong to the molecule of their own block, whether it stands above or below them.
Tests used:
[1] = biological target: biotinylated ^AviSKP1-FBXO22(12-403) (UniProt P63208); experiment: SPR
[2] = biological target: biotinylated ^AviSKP1-FBXO22(12-403) (UniProt P63208); experiment: BLI
[3] = biological target: BACH1 BTB domain (residues 7-128), wild type, tag-free (UniProt O14867); experiment: SEC-MALS
[4] = biological target: BACH1^BTB A53V mutant (cancer-associated, TCGA) (UniProt O14867); experiment: SEC-MALS
BACH1^BTB E12R = BACH1^BTB E12R (UniProt O14867); experiment: SEC-MALS
BACH1^BTB F9A = BACH1^BTB F9A (UniProt O14867); experiment: SEC-MALS
BACH1^BTB S13A = BACH1^BTB S13A (UniProt O14867); experiment: SEC-MALS
BACH1^BTB S13D = BACH1^BTB S13D (UniProt O14867); experiment: SEC-MALS
BACH1^BTB Y11A = BACH1^BTB Y11A (UniProt O14867); experiment: SEC-MALS
BACH1^BTB Y11F = BACH1^BTB Y11F (UniProt O14867); experiment: SEC-MALS
[5] = biological target: BACH1^BTB Y11H mutant (cancer-associated, TCGA) (UniProt O14867); experiment: SEC-MALS
BTFA-modified BACH1^BTB = BTFA-modified BACH1^BTB (UniProt O14867)
[6] = biological target: BACH1 BTB domain (residues 7-128), wild type, tag-free (UniProt O14867); experiment: NMR titration
His10-TEV-BACH1^BTB = His10-TEV-BACH1^BTB (UniProt O14867); experiment: AlphaScreen or HTRF
mass photometry = biological target: the molecule itself; experiment: mass photometry
[7] = biological target: SKP1-FBXO22 heterodimer, wild type, tag-free (UniProt P63208); experiment: mass photometry
Sequence of SKP1-FBXO22 heterodimer, wild type, tag-free (UniProt P63208) (P63208 2-163, chain 1 of 2): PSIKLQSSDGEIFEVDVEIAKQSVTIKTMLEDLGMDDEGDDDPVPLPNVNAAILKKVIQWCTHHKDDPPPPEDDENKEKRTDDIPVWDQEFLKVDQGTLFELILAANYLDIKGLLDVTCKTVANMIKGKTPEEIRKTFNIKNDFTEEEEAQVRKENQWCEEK
Sequence of SKP1-FBXO22 heterodimer, wild type, tag-free (UniProt P63208) (Q8NEZ5 12-403, chain 2 of 2, further chain): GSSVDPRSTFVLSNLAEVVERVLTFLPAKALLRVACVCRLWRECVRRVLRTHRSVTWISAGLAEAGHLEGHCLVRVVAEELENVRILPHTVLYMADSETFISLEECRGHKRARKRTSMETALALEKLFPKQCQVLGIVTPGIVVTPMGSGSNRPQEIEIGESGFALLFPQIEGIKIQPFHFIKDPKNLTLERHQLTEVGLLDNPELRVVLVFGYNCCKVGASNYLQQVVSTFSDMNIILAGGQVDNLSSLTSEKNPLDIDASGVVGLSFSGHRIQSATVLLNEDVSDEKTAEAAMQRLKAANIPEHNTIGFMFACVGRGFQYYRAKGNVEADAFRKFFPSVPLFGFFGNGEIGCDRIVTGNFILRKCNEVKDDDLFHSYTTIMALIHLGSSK

Sequence of biotinylated ^AviSKP1-FBXO22(12-403) (P63208 2-163, chain 1 of 2): as the sequence (P63208 2-163, chain 1 of 2) above
Sequence of biotinylated ^AviSKP1-FBXO22(12-403) (Q8NEZ5 12-403, chain 2 of 2, further chain): as the sequence (Q8NEZ5 12-403, chain 2 of 2, further chain) above

Molecule: BACH1 BTB domain (residues 7-128), wild type, tag-free (from UniProt O14867 7-128) (domain or fragment)
Kd [1]: 0.0577 µM | Kd [2]: 0.124 µM and 0.0839 µM | stoichiometry N [3]: 2

stoichiometry N [4]: 2
Molecule: BACH1^BTB A53V mutant (cancer-associated, TCGA) (from UniProt O14867 7-128) (domain or fragment)

Molecule: BACH1^BTB E12R (from UniProt O14867 7-128) (domain or fragment)
stoichiometry N (BACH1^BTB E12R): 2

Molecule: BACH1^BTB F9A (from UniProt O14867 7-128) (domain or fragment)
stoichiometry N (BACH1^BTB F9A): 2

Molecule: BACH1^BTB S13A (from UniProt O14867 7-128) (domain or fragment)
stoichiometry N (BACH1^BTB S13A): 2

Molecule: BACH1^BTB S13D (from UniProt O14867 7-128) (domain or fragment)
stoichiometry N (BACH1^BTB S13D): 2

Molecule: BACH1^BTB Y11A (from UniProt O14867 7-128) (domain or fragment)
stoichiometry N (BACH1^BTB Y11A): 2

Molecule: BACH1^BTB Y11F (from UniProt O14867 7-128) (domain or fragment)
stoichiometry N (BACH1^BTB Y11F): 2

stoichiometry N [5]: 2
Molecule: BACH1^BTB Y11H mutant (cancer-associated, TCGA) (from UniProt O14867 7-128) (domain or fragment)

stoichiometry N (BTFA-modified BACH1^BTB): 2
Molecule: BTFA-modified BACH1^BTB (from UniProt O14867 7-128) (domain or fragment)

Molecule: SKP1-FBXO22 heterodimer, wild type, tag-free (from UniProt P63208 2-163; Q8NEZ5 12-403) (complex)
stoichiometry N (equivalent SKP1-FBXO22) [6]: 1 | IC50 (His10-TEV-BACH1^BTB): 0.495 µM

Kd [2]: 0.0443 µM and 0.0286 µM | koff [2]: 0.0021 s⁻¹ | kon [2]: 470000 M⁻¹ s⁻¹ | stoichiometry N (BACH1^FL per SKP1-FBXO22 heterodimer) [7]: 2
B1: full-length BACH1 (residues 2-736), tag-free (natural protein)
chain: SLSENSVFAYESSVHSTNVLLSLNDQRKKDVLCDVTIFVEGQRFRAHRSVLAACSSYFHSRIVGQADGELNITLPEEVTVKGFEPLIQFAYTAKLILSKENVDEVCKCVEFLSVHNIEESCFQFLKFKFLDSTADQQECPRKKCFSSHCQKTDLKLSLLDQRDLETDEVEEFLENKNVQTPQCKLRRYQGNAKASPPLQDSASQTYESMCLEKDAALALPSLCPKYRKFQKAFGTDRVRTGESSVKDIHASVQPNERSENECLGGVPECRDLQVMLKCDESKLAMEPEETKKDPASQCPTEKSEVTPFPHNSSIDPHGLYSLSLLHTYDQYGDLNFAGMQNTTVLTEKPLSGTDVQEKTFGESQDLPLKSDLGTREDSSVASSDRSSVEREVAEHLAKGFWSDICSTDTPCQMQLSPAVAKDGSEQISQKRSECPWLGIRISESPEPGQRTFTTLSSVNCPFISTLSTEGCSSNLEIGNDDYVSEPQQEPCPYACVISLGDDSETDTEGDSESCSAREQECEVKLPFNAQRIISLSRNDFQSLLKMHKLTPEQLDCIHDIRRRSKNRIAAQRCRKRKLDCIQNLESEIEKLQSEKESLLKERDHILSTLGETKQNLTGLCQKVCKEAALSQEQIQILAKYSAADCPLSFLISEKDKSTPDGELALPSIFSLSDRPPAVLPPCARGNSEPGYARGQESQQMSTATSEQAGPAEQCRQSGGISDFCQQMTDKCTTDE
stoichiometry N (mass photometry): 2

— paper doi:10.1101/2024.06.03.596960 (bioRxiv, 2024)
